Assay results published in the DeepSol protein solubility set.

Test: soluble on expression in E. coli; label from the status in PepcDB or PDB records

Question: Which “soluble on expression in E. coli” value does the source give for “DFEVGDKIRILATLEDGWLEGSLKGRTGIFPYRFVKLCPDTRVEETMALPQEGSLARIPETSLDCLENTLGVEEQRHETSDHEAEEPDCIISEAPTSPLGHLTSEYDTDRNSYQDEDTAGGPPRSPGVEWEMPLATDSPTSDPTEVVNGISSQPQVPFHPNLQKSQYYSTVGGSHPHSEQYPDLLPLEARTRDYASLPPKRMYSQLKTLQKPVLPLYRGSSVSASRVVKPRQSSPQLHNLASYTKKHHTSSVYSISERLEMKPGPQAQGLVMEAATHSQGDGSTDLDSKLTQQLIEFEKSLAGPGTEPDKILRHFSIMDFNSEKDIVRGSSKLITEQELPERRKALRPPPPRPCTPVSTSPHLLVDQNLKPAPPLVVRPSRPAPLPPSAQQRTNAVSPKLLSRHRPTCETLEKEGPGHMGRSLDQTSPCPLVLVRIEEMERDLDMYSRAQEELNLMLEEKQDESSRAETLEDLKFCESNIESLNMELQQLREMTLLSSQSSSLVAPSGSVSAENPEQRMLEKRAKVIEELLQTERDYIRDLEMCIERIMVPMQQAQVPNIDFEGLFGNMQMVIKVSKQLLAALEISDAVGPVFLGHRDELEGTYKIYCQNHDEAIALLEIYEKDEKIQKHLQDSLADLKSLYNEWGCTNYINLGSFLIKPVQRVMRYPLLLMELLNSTPESHPDKVPLTNAVLAVKEINVNINEYKRRKDLVLKYRKGDEDSLMEKISKLNIHSIIKKSNRVSSHLKHLTGFAPQIKDEVFEETEKNFRMQERLIKSFIRDLSLYLQHIRESACVKVVAAVSMWDVCMERGHRDLEQFERVHRYISDQLFTNFNGQKS” here?
Answer: soluble

Question: Which “soluble on expression in E. coli” value does the source give for “MKLKITLYSVCLLMLLAACQQDGPTPEPSVGSRTVLVYMIAQNSLAPLASADIEEMKEGMRQVDATSGNLLVYIDDYSAPRLIRLGKDKKGKVVEETIENYPEQNSADANVMKKVISTAFNQYKAEKYGMVFWSHGEGWIPSPAKTRWFGQDGNNYMDIADLHAALQVAPDLDFLFFDACFMEAVEVAYALRDCGSYLISSPTEIPGPGAPYQTVVPAMFSAENAALKIASCYYDYYQSRYNDGIGMSNEDWTGGVSVGVAKMSELENLAVATSKVLPRYITGKQNFDLSGVMCYDRRTDKQYYYDLDRFIYQITAGNGDYDSWREAFDKVMVYWKSTPRNYSAYAGMFTMNQDAKGLSTYIPRMSAPSLNTSYQQTEWYKVSGWADTGWYKNLEHHHHHH” here?
Answer: not soluble

Question: Which “soluble on expression in E. coli” value does the source give for “MGSDKIHHHHHHMSTLLQHVNLTEFVDVARQLGLDPYRQLRQAGIRPTALVDPEMRVPAKSVMQLLEDSAQLAGLEDLGLRVAEARELTTLGPLWTVMREGATLRNALGAMARYLHLLNEALDLRLEEVGDTAVVRLEFLVSVDGSMRQSTEFIICLWFRLFKLLSGDAWKPRSVCFTHAAPASLATHRRVFGVPVRFHQDFDGILLSAADLDVAGTTSDTALGRHAREFLDTKLAQSDSTMPDKVRKLVFALLPTGECGAEQVARQLGIDRKTMHRHLAAYGQNYLSVVDAVRVELVTRYLKNNERPLSDVAILMGFSSLSAFSRWFATRYGCSVSAWRRQRTAPEIRR” here?
Answer: not soluble

Question: With “MHIISLLLENEPGALSRVVGLFSQRNYNIESLTVAPTEDPTLSRLTLTTVGHDEVIEQITKNLNKLIEVVKLVDL” as the sequence, how does the “soluble on expression in E. coli” value read?
Answer: soluble

Question: For “MEESPTKTFKCPKCWNKFENKPKLITHVDLECKHKYFRCELCDFKSTQKTGLTSHYHGHIRQSNVIHCPYCKKKKTFKSRNNLMVHVHHYHPTHINEMKQANLESAKEEKMKTMLEKQAKEAHEFEISQPAVFEKDFASYDLPMFSQCPPMNGIPVSTPIEYPYSQNPYQDHTPFDSYPYPNFHPQQLPLPTFENNLPDIATYFDL”, which “soluble on expression in E. coli” value is on record?
Answer: not soluble

Question: With “MSLYKVYGDYRSGNCYKIKLMLNLLGLPYEWQAVDILGGDTQTEAFLAKNPNGKIPVLELEDGTCLWESNAILNFLADGSQFLPSEPRLRTQVLQWQFFEQYSHEPYIAVARFIQLYEGLPEERREEYLKLHKRGYKALDVMEKQLSRTPYLVGEHYSIADIALYAYTHVADEGGFDLSRYPGIQAWMQRVQSHPRHVPMLDEGHHHHHH” as the sequence, how does the “soluble on expression in E. coli” value read?
Answer: soluble

Question: For “MGSDKIHHHHHHMKISIIGAGSVRFALQLVGDIAQTEELSREDTHIYMMDVHERRLNASYILARKYVEELNSPVKIVKTSSLDEAIDGADFIINTAYPYDPRYHDSGSQRWDEVTKVGEKHGYYRGIDSQELNMVSTYTYVLSSYPDMKLALEIAEKMKKMAPKAYLMQTANPVFEITQAVRRWTGANIVGFCHGVAGVYEVFEKLDLDPEEVDWQVAGVNHGIWLNRFRYRGEDAYPLLDEWIEKKLPEWEPKNPWDTQMSPAAMDMYKFYGMLPIGDTVRNGSWKYHYNLETKKKWFGKFGGIDNEVERPKFHEQLRRARERLIKLAEEVQQNPGMKLTEEHPEIFPKGKLSGEQHIPFINAIANNKRVRLFLNVENQGTLKDFPDDVVMELPVWVDCCGIHREKVEPDLTHRIKIFYLWPRILRMEWNLEAYISRDRKVLEEILIRDPRTKSYEQIVQVLDEIFNLPFNEELRRYYKEKL”, which “soluble on expression in E. coli” value is on record?
Answer: soluble

Question: Which “soluble on expression in E. coli” value does the source give for “MGSDKIHHHHHHMLDITMFSKADSVKGQGVGSAYLELMRLLRTHWQDEFNIKVNRYGRSAVSHYHTVNPMFYLSTFMPNRGRKIGYVHFLPETLEGSLKLPRPFQMIFNRYLISFYKRMDHIVVVNPTFIPKLEAYHIKRADVTYIPNFVSKREFYEMTKAKQLRLRQQYGYDQNKFMIIGTGQIQDRKGVPDFITLAKQNPDIQFVWAGGFSFGRITDGYQELKQVVDNPPANLSFPGIVPREKLVDYYNMADLFLLPSYNELFPMSVLEAFSCGTPVLLRDLDLYRAIIDGYYQAASDVDDMQRQIDQLSHNPAGLQFLHDKAVLAAQD” here?
Answer: not soluble

Question: Which “soluble on expression in E. coli” value does the source give for “MGSDKIHHHHHHMKYTELLQLQTFFSRFKKIDFIKRINDNILELSFDRERFIFDLTRAMSAIYTAKFNAKNYNAPFDFMLKKYFSNAFIKEVKVLEGNRILCFSVKANKAYKSYESKIYFEFTGKNTNVILTDEKDLIIEALRHIDKSYRVVKPNVILESLKPYKMDENFEEIKDFADYFSRKFTSIYESKIKQIKNLKLAQVDKKIQNLQELFSSLDEENSLLLKALEYRKRADVLFANLSVLKDYEREFKLDDFEGKELEFKLEFNPKQSANLYYKNAKKLEQKAKNLNIQRQNLKEKLDFTLSLKELLLQAKSEIELEILLPKKNSKKNQDHKQEDLVANFYFNEFKICVGKNEKGNEFLLKNAKKDDLWLHVRDIPSAHTLIVSNKQKISLDVIEFAARLCVSFSKLKKGSYWVDYTLKNFVKVQQKAFVNYTNFKSINITKD” here?
Answer: not soluble

Question: With “MAERRMFAKTIIDSDAFLDMPLSSQALYFHLAMRADDDGFINNPKKLQRMVGCGEDDLKLLMVKKFILVFESGVIVIKHWKIHNYIRSDRYKPTLYQEEKNQIVEKNSKAYTFKAESSVGGQPADYQRLPQESIVQSKLGQSQGSSSENDCLKMIYHFYEENGFGTLASKTSQDFKYWLQDFIQKGASQEEACQLILHALGIAVDRNKRNYGYVNAILKSWEQQNYLSVHEVLVNDKKQVLEHAPQMTEEYQELGF” as the sequence, how does the “soluble on expression in E. coli” value read?
Answer: not soluble

Question: For “MDIPIPTRQLFINGDWKAPVLNKRIPVINPATQNIIGDIPAATKEDVDVAVAAAKTALTRNKGADWATASGAVRARYLRAIAAKVTEKKPELAKLESIDCGKPLDEAAWDIDDVAGCFEYYADLAEKLDARQKAPVSLPMDTFKSHVLREPIGVVGLITPWNYPMLMATWKVAPALAAGCAAILKPSELASLTCLELGEICKEVGLPPGVLNILTGLGPEAGAPLATHPDVDKVAFTGSSATGSKIMTAAAQLVKPVSLELGGKSPLVVFEDVDLDKAAEWAIFGCFWTNGQICSATSRLILHESIATEFLNRIVKWIKNIKISDPLEEGCRLGPVVSEGQYEKILKFVSNAKSEGATILTGGSRPEHLKKGFFIEPTIITDVTTNMQIWREEVFGPVLCVKTFSTEEEAIDLANDTVYGLGAAVISNDLERCERVTKAFKAGIVWVNCSQPCFTQAPWGGVKRSGFGRELGEWGLDNYLSVKQVTQYISEEPWGWYQPPAKL”, which “soluble on expression in E. coli” value is on record?
Answer: soluble

Question: Which “soluble on expression in E. coli” value does the source give for “MGSDKIHHHHHHAKTTTQHGNALAAYNVKRYKTVKNRNLFVKRYAFQQSYTNIFQTSPTQISSTKGKAVTFKSNVFLPVTYQRSADWGNPQSEVLTPNGNTLYELITTSSQSTTGRIVRYNLGALRHFGITSTHMDALRRATYDHSVGKLTATDKAILKNVTVGPLFNTGHGQSLARNPKNGQLWFIGKPGAVKSNVQQVSTKTLKPSTKVNFTLKNTVPMGSNLTFDKHGKAYFFTYSNGGWAPKGAVKIYQGTISTKSVHFHLVMQGLRYAPGTKPQSMAYNAKRNRLYFVSDSSLASIPVSKLGKLKASQVEGTNLNGHREFEGLQFTSNGSGYLLVNKGAELMQTTHATF” here?
Answer: not soluble

Question: With “MIRTDNLSDLASARDYWRTDKYISFVITFQFYLLLDTMSDSFNWPAGNNEARERLGEKFESLHLDSRISTSHAKPLSNADPVVVPIYHSSTYRFKTVDQFNEDNHGANFVYRRCGNPTTENVEVVINEIEGGAGSLLYNSGLAAISAVFLEFLSSGAHMIVMNPIYSGTSSFINETLARFGVEITSVDVEKEKDFAGAVEKAIRPNTKMIYFESIANPTMAVPDILGTIEVAKKYKILTCLDATFSSPYNIQPLKLGADISLHSCSKYIGGHTDVIAGVVTVSSYDNWKKLKLQQLTTGSSLSPYDAALLTRGLKTLGLRVDRISENAQKTAEFLESHPKVERVFYPGLPSHPQHQYAKQVMKQFAGMIAFDVGTAENAIKLVESLKLIIHAVSLGGTESLIEHPLSMSHGKHLLRYLDGPTVAPGLLRFSVGIENVEDIIGDLNDALEKL” as the sequence, how does the “soluble on expression in E. coli” value read?
Answer: not soluble

Question: For “GMVRRTRAEMEETRATLLATARKVFSERGYADTSMDDLTAQASLTRGALYHHFGDKKGLLAAVVEQIDAEMDERLQAISDTAEDDWEGFRCRCRAYLEMALEPEIQRIVLRDARAVLGGASPDSQRHCVESMQRLIDNLIRQGVVAEADPQALASLIYGSLAEAAFWIAEGEDGNARLAQGVAALELLLRGLLVKPR”, which “soluble on expression in E. coli” value is on record?
Answer: soluble

Question: With “GPGSMASNITAERYEQLKKERTFHKFTYRGLEIDPLLALSEEEFKALVHARARRNMNRHADRRPPVLLKRLREAKKHVKVGEKPKAVKTHLRDVVITPEMVGSVVAIYNGHQFNAVEIKGEMIGHYLGEFSMSYRPVLHGRPGVGATHSSRFIPIK” as the sequence, how does the “soluble on expression in E. coli” value read?
Answer: soluble

Question: Which “soluble on expression in E. coli” value does the source give for “MGSDKIHHHHHHMKSHVRSFKTYIRDEIIKKGGWVNAHAHADRAFTMTPEKIGIYHSSNLQQKWDLVDEVKRTSSVDDYYARFCQSIELMISQGVTAFGTFVDIDPICEDRAIIAAHKAREVYKHDIILKFANQTLKGVIEPTARKWFDIGAEMVDMIGGLPYRDELDYGRGLEAMDILLDKAKSLGIMCHVHVDQFNNPSEKETEQLCDKTIEHGMEGRVVGIHGISIGSHSKEYRYKLYEKMRKAKMMMIACPMAWIDSNRKEDLMPFHNALTPADEMIPEVSLLP” here?
Answer: not soluble

Question: Which “soluble on expression in E. coli” value does the source give for “MAATSRPERVWPDGVIPFVIGGNFTGSQRAVFRQAMRHWEKHTCVTFLERTDEDSYIVFTYRPCGCCSYVGRRGGGPQAISIGKNCDKFGIVVHELGHVVGFWHEHTRPDRDRHVSIVRENIQPGQEYNFLKMEPQEVESLGETYDFDSIMHYARNTFSRGIFLDTIVPKYEVNGVKPPIGQRTRLSKGDIAQARKLYKCPA” here?
Answer: soluble

Question: For “MHVVYPGSFDPLTNGHLDVIQRASRLFEKVTVAVLENPSKRGQYLFSAEERLAIIREATAHLANVEAATFSGLLVDFVRRVGAQAIVKGLRAVSDYEYELQMAHLNRQLYPGLETLFILAATRYSFVSSTMVKEIARYGGDVSKLVPPATLRALKAKLGQ”, which “soluble on expression in E. coli” value is on record?
Answer: soluble

Question: Which “soluble on expression in E. coli” value does the source give for “LTGPQLAVVGSRQPSPYALRAMRRLLPQVVRQQVCLVSGLAQGVDTLAHQAALAHRGKTIAVIGTGLDHCYPAGNRDLMTELAHHHLVISEYPWGTAGARHHFPERNRIIAGLSQSTLVVEAARHSGSLITANIALQENRNVLAVPGSLDNPNSVGTNELILAGAKPILNSEHIIEEVLVDKRL” here?
Answer: not soluble

Question: With “NGFDVREGRKLLVGGGSGIVSLYPIADQETDALISAKTRDELIFKDRFPESRRFIATDDGSDGFHGFAHELLQRINIDSYEAIYVCGPEQMMYKVLQVLKGRKVFVQFS” as the sequence, how does the “soluble on expression in E. coli” value read?
Answer: not soluble
